From the supplement of paper PMC11780869

System: Bacillus subtilis
Test: cleaved RNA product abundance (RNA/gDNA barcode ratio) relative to median wild-type variant (ratio to wild type); higher = more accumulation of the downstream cleavage product
Details: cleavage site: cggR-gapA (positions -7 to +36 mutated)
Procedure, shortened: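 Truncated aprE or tetM reporter mRNAs with barcoded RNase Y cleavage-site windows, mutagenized from oligos at a 9% error rate, sat in the B. subtilis chromosome. Cells grew in LB at 37°C from OD600 0.0003 to 0.3. Gel-selected cleaved RNA was reverse transcribed and its barcodes sequenced with those from genomic DNA, collapsing by UMI. Cleaved product abundance equals the RNA:gDNA barcode ratio per construct over the median construct with the unmutated site.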

[1] = experiment (reporter, strain, medium): exp 2b: truncated aprE reporter, strain BJT200
[2] = experiment (reporter, strain, medium): exp 4a: truncated aprE reporter, strain BJT201 with 2% xylose (RNase J1 expressed)
[3] = experiment (reporter, strain, medium): exp 6: tetM reporter, strain 168

Sequence | cleaved RNA product abundance [1] | cleaved RNA product abundance [2] | cleaved RNA product abundance [3]
ACAGACGAAGGAGCCGCAAAGAAGTTATTAAAGGATGAATAATACCTCAATATAAATATCTCTCACTTATTTAAA | 0.0942 | 0.121 | 0.108
ACAGACGAAGGAGCCGCAAAGAAGTTATTAAAGGATGAATAATCACTCAATATAAATATCTCTCACTTATTTAAA | 0.0796 | 0.14 | –
ACAGACGAAGGAGCCGCAAAGAAGTTATTAAAGGATGAATAATCCATCAATATAAATATCTCTCACTTATTTAAA | 0.141 | 0.178 | –
ACAGACGAAGGAGCCGCAAAGAAGTTATTAAAGGATGAATAATCCCACAATATAAATATCTCTCACTTATTTAAA | 0.113 | 0.173 | –
ACAGACGAAGGAGCCGCAAAGAAGTTATTAAAGGATGAATAATCCCCCAATATAAATATCTCTCACTTATTTAAA | 0.152 | 0.156 | –
ACAGACGAAGGAGCCGCAAAGAAGTTATTAAAGGATGAATAATCCCCTCAATATAAATATCTCTCACTTATTTAA | – | 0.159 | –
ACAGACGAAGGAGCCGCAAAGAAGTTATTAAAGGATGAATAATCCCGCAATATAAATATCTCTCACTTATTTAAA | – | 0.219 | –
ACAGACGAAGGAGCCGCAAAGAAGTTATTAAAGGATGAATAATCCCTAAATATAAATATCTCTCACTTATTTAAA | 0.232 | 0.342 | –
ACAGACGAAGGAGCCGCAAAGAAGTTATTAAAGGATGAATAATCCCTCAAAATAAATATCTCTCACTTATTTAAA | 0.148 | 0.152 | –
ACAGACGAAGGAGCCGCAAAGAAGTTATTAAAGGATGAATAATCCCTCAACATAAATATCTCTCACTTATTTAAA | – | 0.265 | –
ACAGACGAAGGAGCCGCAAAGAAGTTATTAAAGGATGAATAATCCCTCAATACAAATATCTCTCACTTATTTAAA | 0.126 | 0.0875 | –
ACAGACGAAGGAGCCGCAAAGAAGTTATTAAAGGATGAATAATCCCTCAATAGAAATATCTCTCACTTATTTAAA | 0.111 | 0.107 | –
ACAGACGAAGGAGCCGCAAAGAAGTTATTAAAGGATGAATAATCCCTCAATATAAAAATCTCTCACTTATTTAAA | 0.147 | 0.244 | –
ACAGACGAAGGAGCCGCAAAGAAGTTATTAAAGGATGAATAATCCCTCAATATAAACATCTCTCACTTATTTAAA | – | 0.206 | –
ACAGACGAAGGAGCCGCAAAGAAGTTATTAAAGGATGAATAATCCCTCAATATAAATAACTCTCACTTATTTAAA | 0.157 | 0.229 | –
ACAGACGAAGGAGCCGCAAAGAAGTTATTAAAGGATGAATAATCCCTCAATATAAATACCTCTCACTTATTTAAA | – | 0.13 | –
ACAGACGAAGGAGCCGCAAAGAAGTTATTAAAGGATGAATAATCCCTCAATATAAATAGCTCTCACTTATTTAAA | – | 0.176 | –
ACAGACGAAGGAGCCGCAAAGAAGTTATTAAAGGATGAATAATCCCTCAATATAAATATATCTCACTTATTTAAA | – | 0.259 | –
ACAGACGAAGGAGCCGCAAAGAAGTTATTAAAGGATGAATAATCCCTCAATATAAATATCTCTCACTTATTTAAA | 0.162 | 0.211 | 0.242

Sequence | cleaved RNA product abundance [1] | cleaved RNA product abundance [2] | cleaved RNA product abundance [3]
ACAGACGAAGGAGCCGCAAAGAAGTTATTAAAGGATGAATAATCCCTCAATATAAATATTTCTCACTTATTTAAA | – | 0.247 | –
ACAGACGAAGGAGCCGCAAAGAAGTTATTAAAGGATGAATAATCCCTCAATATAAATCTCTCTCACTTATTTAAA | – | 0.208 | –
ACAGACGAAGGAGCCGCAAAGAAGTTATTAAAGGATGAATAATCCCTCAATATAAATGTCTCTCACTTATTTAAA | 0.136 | 0.155 | –
ACAGACGAAGGAGCCGCAAAGAAGTTATTAAAGGATGAATAATCCCTCAATATAATTATCTCTCACTTATTTAAA | – | 0.161 | –
ACAGACGAAGGAGCCGCAAAGAAGTTATTAAAGGATGAATAATCCCTCAATATACATATCTCTCACTTATTTAAA | – | 0.17 | 0.136
ACAGACGAAGGAGCCGCAAAGAAGTTATTAAAGGATGAATAATCCCTCAATATAGATATCTCTCACTTATTTAAA | – | 0.0996 | –
ACAGACGAAGGAGCCGCAAAGAAGTTATTAAAGGATGAATAATCCCTCAATATATATATCTCTCACTTATTTAAA | – | 0.16 | –
ACAGACGAAGGAGCCGCAAAGAAGTTATTAAAGGATGAATAATCCCTCAATATGAATATCTCTCACTTATTTAAA | 0.094 | 0.0586 | –
ACAGACGAAGGAGCCGCAAAGAAGTTATTAAAGGATGAATAATCCCTCAATATTAATATCTCTCACTTATTTAAA | – | 0.0494 | –
ACAGACGAAGGAGCCGCAAAGAAGTTATTAAAGGATGAATAATCCCTCAATGTAAATATCTCTCACTTATTTAAA | 0.0901 | 0.0731 | –
ACAGACGAAGGAGCCGCAAAGAAGTTATTAAAGGATGAATAATCCCTCAATTTAAATATCTCTCACTTATTTAAA | 0.088 | 0.0949 | –
ACAGACGAAGGAGCCGCAAAGAAGTTATTAAAGGATGAATAATCCCTCACTATAAATATCTCTCACTTATTTAAA | 0.113 | 0.152 | –
ACAGACGAAGGAGCCGCAAAGAAGTTATTAAAGGATGAATAATCCCTCAGTATAAATATCTCTCACTTATTTAAA | – | 0.122 | –
ACAGACGAAGGAGCCGCAAAGAAGTTATTAAAGGATGAATAATCCCTCATTATAAATATCTCTCACTTATTTAAA | – | 0.245 | –
ACAGACGAAGGAGCCGCAAAGAAGTTATTAAAGGATGAATAATCCCTCCATATAAATATCTCTCACTTATTTAAA | – | 0.0862 | –
ACAGACGAAGGAGCCGCAAAGAAGTTATTAAAGGATGAATAATCCCTCCTTATAAATATCTCTCACTTATTTAAA | – | 0.0791 | –
ACAGACGAAGGAGCCGCAAAGAAGTTATTAAAGGATGAATAATCCCTCGATATAAATATCTCTCACTTATTTAAA | 0.0861 | 0.0487 | –
ACAGACGAAGGAGCCGCAAAGAAGTTATTAAAGGATGAATAATCCCTCTATATAAAAATCTCTCACTTATTTAAA | – | 0.229 | –
ACAGACGAAGGAGCCGCAAAGAAGTTATTAAAGGATGAATAATCCCTCTATATAAATATCTCTCACTTATTTAAA | 0.132 | 0.18 | –

Sequence | cleaved RNA product abundance [1] | cleaved RNA product abundance [2] | cleaved RNA product abundance [3]
ACAGACGAAGGAGCCGCAAAGAAGTTATTAAAGGATGAATAATCCCTGAATATAAATATCTCTCACTTATTTAAA | 0.133 | 0.171 | –
ACAGACGAAGGAGCCGCAAAGAAGTTATTAAAGGATGAATAATCCCTTAATATAAATATCTCTCACTTATTTAAA | 1.16 | 1.06 | –
ACAGACGAAGGAGCCGCAAAGAAGTTATTAAAGGATGAATAATCCGTCAATATAAATATCTCTCACTTATTTAAA | 0.16 | 0.161 | –
ACAGACGAAGGAGCCGCAAAGAAGTTATTAAAGGATGAATAATCCTTCAATATAAATATCTCTCACTTATTTAAA | 0.646 | 0.86 | –
ACAGACGAAGGAGCCGCAAAGAAGTTATTAAAGGATGAATAATCTCTCAATATAAATATCTCTCACTTATTTAAA | – | 0.149 | –
ACAGACGAAGGAGCCGCAAAGAAGTTATTAAAGGATGAATAATGCCTCAATATAAATATCTCTCACTTATTTAAA | 0.118 | 0.087 | –
ACAGACGAAGGAGCCGCAAAGAAGTTATTAAAGGATGAATAATTCCTCAATATAAATATCTCTCACTTATTTAAA | 0.0999 | 0.172 | –
ACAGACGAAGGAGCCGCAAAGAAGTTATTAAAGGATGAATACTCCCTCAATATAAATATCTCTCACTTATTTAAA | 0.117 | 0.108 | –
ACAGACGAAGGAGCCGCAAAGAAGTTATTAAAGGATGAATAGTCCCTCAATATAAATATCTCTCACTTATTTAAA | 0.124 | – | –
ACAGACGAAGGAGCCGCAAAGAAGTTATTAAAGGATGAATATTCCCTAAATATAAATATCTCTCACTTATTTAAA | 0.0923 | – | –
ACAGACGAAGGAGCCGCAAAGAAGTTATTAAAGGATGAATATTCCCTCAATATAAATATCTCTCACTTATTTAAA | – | 0.183 | –
ACAGACGAAGGAGCCGCAAAGAAGTTATTAAAGGATGAATCATCCCTCAATATAAATATCTCTCACTTATTTAAA | 0.178 | 0.212 | –
ACAGACGAAGGAGCCGCAAAGAAGTTATTAAAGGATGAATGATCCCTCAATATAAATATCTCTCACTTATTTAAA | 0.0792 | 0.155 | –
ACAGACGAAGGAGCCGCAAAGAAGTTATTAAAGGATGAATTATCCCTCAATATAAATATCTCTCACTTATTTAAA | 0.14 | 0.149 | –
ACAGACGAAGGAGCCGCAAAGAAGTTATTAAAGGATGACTAATCCCTCAATATAAATATCTCTCACTTATTTAAA | 0.0975 | 0.133 | –
ACAGACGAAGGAGCCGCAAAGAAGTTATTAAAGGATGAGTAATCCCTCAATATAAATATCTCTCACTTATTTAAA | – | 0.202 | –
ACAGACGAAGGAGCCGCAAAGAAGTTATTAAAGGATGATTAATCCCTCAATATAAATATCTCTCACTTATTTAAA | 0.122 | 0.184 | –
ACAGACGAAGGAGCCGCAAAGAAGTTATTAAAGGATGCATAATCCCTCAATATAAATATCTCTCACTTATTTAAA | – | 0.312 | –
ACAGACGAAGGAGCCGCAAAGAAGTTATTAAAGGATGGATAATCCCTCAATATAAATATCTCTCACTTATTTAAA | – | 0.141 | –
